Positions count from the first letter of the chain named.

The chains are these.
T1: Peptide 4: Biotin-AGGGGSGGGGSGGGGSAAA-Tyr-acid (N-terminal biotin; C-terminal acid)
T1 construct: Control peptide without PC
T1 peptide: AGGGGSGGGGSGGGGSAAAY

T2: Peptide 8: Biotin-AEAAAKEAAAKEAAAKEAAAKAAA-Tyr-acid (N-terminal biotin; C-terminal acid)
T2 construct: Control peptide without PC
T2 peptide: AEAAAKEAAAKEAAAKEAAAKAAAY

B1: PcOxP_DB03_D12 (scFv, V domains shown)
VH: EVQLLESGGGLVQPGGSLRLSCAASGFTNSDFYMEWVRQAPGKGLEWVAASRNKANDYTTELADSVKGRFTISRDNSKNTLYLQMNSLRAEDTAVYYCARDYYGSSYWYFDVWGQGTLVTVSS
VL: DIVMTQSPDSLAVSLGERATINCTASESLYSSKHKVHYLAWYQQKPGQPPKLLIYGASNRYIGVPDRFSGSGSGTDFTLTISSLQAEDVAVYYCAQFYSYPLTFGGGTKVEIK
notes: scFv in periplasmic extract
B2: PcOxP_DB04_A04 (scFv, V domains shown)
VH: B1 VH with N29F, A55W, L62Y
VL: B1 VL with E27Q, L29V, H34N, V36K, S99R
notes: scFv in periplasmic extract
B3: PcOxP_DB03_E03 (scFv, V domains shown)
VH: B1 VH with N29E, L62Y
VL: B1 VL with T24K, A25S, E27Q, Y30L, S31Y, H34N, K35N, H37N, A57E, S99E
notes: scFv in periplasmic extract
B4: PcOxP_DB04_A05 (scFv, V domains shown)
VH: B1 VH with N29F, M34I, L62Y
VL: B1 VL with Y61E
notes: scFv in periplasmic extract
B5: PcOxP_DB03_G09 (scFv, V domains shown)
VH: B1 VH with T28S, N29F, A55W, L62Y
VL: B1 VL with Q96S
notes: scFv in periplasmic extract
B6: PcOxP_DB03_F05 (scFv, V domains shown)
VH: B1 VH with N29F, F32Y, A55G, E61A, L62Y, Y103F
VL: B1 VL with E27Q, L29V, K35N, V36K, R60P
notes: scFv in periplasmic extract
B7: PcOxP_DB03_H10 (scFv, V domains shown)
VH: B1 VH with N29F, S30D, K54E, L62Y
VL: B1 VL with S58G, S99H
notes: scFv in periplasmic extract
B8: PcOxP_DB03_G12 (scFv, V domains shown)
VH: B1 VH with N29F, F32Y, A55Y, L62Y
VL: B1 VL with T24K, A25S, L29V, V36K
notes: scFv in periplasmic extract
B9: PcOxP_DB03_E12 (scFv, V domains shown)
VH: B1 VH with F27E, N29F, A55W, L62Y
VL: B1 VL with H37N
notes: scFv in periplasmic extract
B10: PcOxP_DB03_G01 (scFv, V domains shown)
VH: B1 VH with N29F, F32G, D57F, L62Y, Y102H
VL: B1 VL with S99N
notes: scFv in periplasmic extract
B11: PcOxP_DB03_H02 (scFv, V domains shown)
VH: B1 VH with N29E, A55Y, L62Y
VL: B1 VL with S58Q
notes: scFv in periplasmic extract
B12: PcOxP_DB03_F02 (scFv, V domains shown)
VH: B1 VH with N29F, D31S, F32Y, L62Y, G104D
VL: B1 VL with A25S, Y30L, I62T
notes: scFv in periplasmic extract
B13: PcOxP_DB03_F07 (scFv, V domains shown)
VH: B1 VH with N29Q, A55G, D57S, E61A, L62Y
VL: B1 VL with S32G
notes: scFv in periplasmic extract
B14: PcOxP_DB03_E04 (scFv, V domains shown)
VH: B1 VH with N29F, D31S, F32Y, L62Y
VL: B1 VL with I62L
notes: scFv in periplasmic extract
B15: PcOxP_DB03_G11 (scFv, V domains shown)
VH: B1 VH with N29F, D31S, F32Y, L62Y
VL: B1 VL with T24K, A25S, E27Q, L29V, Y30L, V36K, H37N
notes: scFv in periplasmic extract
B16: PcOxP_DB03_E11 (scFv, V domains shown)
VH: B1 VH with N29F, F32G, L62Y
VL: B1 VL with T24K, A25S, H34N, S99H
notes: scFv in periplasmic extract
B17: PcOxP_DB03_F11 (scFv, V domains shown)
VH: B1 VH with N29F, F32Y, D57S, E61A, L62Y
VL: B1 VL with A25S, E27Q, Y30L, S31Y, K33S, H34N, V36K, S99E
notes: scFv in periplasmic extract
B18: PcOxP_DB03_F03 (scFv, V domains shown)
VH: B1 VH with N29F, F32Q, A55N, L62Y, S105A
VL: B1 VL with E27Q, L29V, V36K, S58N, A95G
notes: scFv in periplasmic extract

For one assay, the target named is BSA (UniProt P02769). In words: scFv ELISA.
Sequence of BSA (P02769 25-607 limits assumed): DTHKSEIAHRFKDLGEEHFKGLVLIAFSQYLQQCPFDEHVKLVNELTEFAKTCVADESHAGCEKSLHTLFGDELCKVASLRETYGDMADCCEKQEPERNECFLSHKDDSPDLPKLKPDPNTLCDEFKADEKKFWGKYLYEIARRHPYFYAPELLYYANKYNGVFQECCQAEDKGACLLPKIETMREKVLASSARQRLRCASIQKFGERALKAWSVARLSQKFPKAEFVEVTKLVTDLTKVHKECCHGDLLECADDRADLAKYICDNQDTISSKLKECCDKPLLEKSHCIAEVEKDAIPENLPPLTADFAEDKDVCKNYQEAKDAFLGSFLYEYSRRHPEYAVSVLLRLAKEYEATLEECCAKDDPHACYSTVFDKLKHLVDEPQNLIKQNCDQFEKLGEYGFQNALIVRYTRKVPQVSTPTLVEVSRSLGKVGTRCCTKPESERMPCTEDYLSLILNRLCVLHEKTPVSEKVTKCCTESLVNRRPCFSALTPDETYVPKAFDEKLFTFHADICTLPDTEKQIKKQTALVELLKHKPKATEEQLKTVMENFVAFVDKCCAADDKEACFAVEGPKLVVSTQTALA
The molecule B1 registered an OD450 of 0.06 OD450.

For the molecule B2, the OD450 was determined as 0.11 OD450.

B3 registered an OD450 of 0.05 OD450.

Regarding B4, the OD450 is 0.06 OD450.

Consider B5, for which the OD450 turned out to be 0.07 OD450.

Regarding B6, the OD450 came to 0.06 OD450.

B7 showed an OD450 of 0.05 OD450.

For B8, the OD450 was found to be 0.08 OD450.

B9 returned an OD450 of 0.06 OD450.

Regarding B10, the OD450 was found to be 0.09 OD450.

Molecule B11 yielded an OD450 of 0.05 OD450.

Molecule B12 came in with an OD450 of 0.07 OD450.

B13 gave an OD450 of 0.08 OD450.

For the molecule B14, the OD450 came to 0.08 OD450.

As to B15, the OD450 was determined as 0.1 OD450.

Turning to B16, the OD450 is 0.07 OD450.

With B17, the OD450 stood at 0.12 OD450.

Turning to B18, the OD450 came to 0.08 OD450.

The target of another assay is Peptide 1: Biotin-…-[Tyr(PC)]-acid. The experiment in a line: scFv ELISA. In general terms: An ELISA detects its analyte on a solid surface through an enzyme-linked reagent.
B1 yielded an OD450 of 0.2 OD450.

Take B2: the OD450 is 1.09 OD450.

Molecule B3 gave an OD450 of 0.27 OD450.

B4: the OD450 came to 0.72 OD450.

On to B5, for which the OD450 worked out at 0.74 OD450.

Take B6: the OD450 stood at 0.73 OD450.

B7 yielded an OD450 of 0.24 OD450.

B8 yielded an OD450 of 1.57 OD450.

The molecule B9 returned an OD450 of 0.57 OD450.

For B10, the OD450 is 0.66 OD450.

The molecule B11 returned an OD450 of 1.07 OD450.

With B12, the OD450 is 1.56 OD450.

For the molecule B13, the OD450 was 0.53 OD450.

In the case of B14, the OD450 turned out to be 0.96 OD450.

Regarding B15, the OD450 came out at 0.26 OD450.

Molecule B16 returned an OD450 of 1.4 OD450.

Molecule B17 had an OD450 of 1.47 OD450.

B18 came in with an OD450 of 1.13 OD450.

In another assay the target is Peptide 5: Biotin-…-[Tyr(PC)]-acid. In words: scFv ELISA.
B1 had an OD450 of 0.3 OD450.

The molecule B2 had an OD450 of 1.9 OD450.

In turn, B3 registered an OD450 of 0.79 OD450.

In turn, B4 gave an OD450 of 1.29 OD450.

For B5, the OD450 worked out at 1.07 OD450.

B6 returned an OD450 of 1.04 OD450.

In turn, B7 displayed an OD450 of 0.39 OD450.

Molecule B8 displayed an OD450 of 1.91 OD450.

For the molecule B9, the OD450 amounted to 0.88 OD450.

In the case of B10, the OD450 came out at 1.19 OD450.

As to B11, the OD450 is 1.69 OD450.

For the molecule B12, the OD450 is 1.68 OD450.

In turn, B13 came in with an OD450 of 1.19 OD450.

The molecule B14 returned an OD450 of 1.2 OD450.

In the case of B15, the OD450 came out at 0.72 OD450.

B16 registered an OD450 of 1.58 OD450.

As for B17, the OD450 came out at 1.43 OD450.

With B18, the OD450 stood at 1.93 OD450.

The next assay has as its target T1, Peptide 4: …. In words: scFv ELISA. The essentials:
(§1)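 Bound scFv was read as OD450 after HRP–anti-V5 detection, TMB development and HCl stop. PPE with BSA was incubated 1 h at RT on BSA-blocked wells coated overnight at 4° C. with peptide, or on streptavidin wells loaded 1 h with biotinylated PC-peptides at 1 μg/mL.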
B1: the OD450 was found to be 0.04 OD450.

As to B2, the OD450 was 0.08 OD450.

B3: the OD450 came to 0.04 OD450.

The molecule B4 showed an OD450 of 0.04 OD450.

On to B5, for which the OD450 was 0.05 OD450.

In the case of B6, the OD450 worked out at 0.05 OD450.

As to B7, the OD450 is 0.04 OD450.

As for B8, the OD450 is 0.06 OD450.

Turning to B9, the OD450 came out at 0.06 OD450.

Turning to B10, the OD450 stood at 0.05 OD450.

Consider B11, for which the OD450 came to 0.05 OD450.

On to B12, for which the OD450 was 0.05 OD450.

On to B13, for which the OD450 amounted to 0.05 OD450.

B14 had an OD450 of 0.06 OD450.

With B15, the OD450 came out at 0.05 OD450.

For the molecule B16, the OD450 came to 0.05 OD450.

B17 gave an OD450 of 0.06 OD450.

With B18, the OD450 came to 0.05 OD450.

The next assay addresses T2, Peptide 8: …. In words: scFv ELISA. Put shortly:
as §1
In turn, B1 yielded an OD450 of 0.04 OD450.

As to B2, the OD450 is 0.08 OD450.

B3 displayed an OD450 of 0.04 OD450.

With B4, the OD450 amounted to 0.04 OD450.

In turn, B5 displayed an OD450 of 0.05 OD450.

B6: the OD450 stood at 0.04 OD450.

Regarding B7, the OD450 is 0.07 OD450.

On to B8, for which the OD450 was found to be 0.05 OD450.

For B9, the OD450 is 0.06 OD450.

On to B10, for which the OD450 was 0.05 OD450.

As for B11, the OD450 amounted to 0.04 OD450.

In turn, B12 had an OD450 of 0.05 OD450.

The molecule B13 had an OD450 of 0.05 OD450.

The molecule B14 had an OD450 of 0.04 OD450.

The molecule B15 displayed an OD450 of 0.05 OD450.

Molecule B16 showed an OD450 of 0.04 OD450.

For B17, the OD450 was found to be 0.06 OD450.

In turn, B18 registered an OD450 of 0.05 OD450.

Values taken from patent publication US20250320312A1 (OXITOPE PHARMA B V, published 2025).
